Data set [1] deals with T1, SvS-A2 (synthetic construct, UniProt Z9I7L2B0V8, A89H/A224I).
T1 construct: homodimer; first resolved N-terminal residue Asp09
T1 sequence (Z9I7L2B0V8 1-361 A89H/A224I): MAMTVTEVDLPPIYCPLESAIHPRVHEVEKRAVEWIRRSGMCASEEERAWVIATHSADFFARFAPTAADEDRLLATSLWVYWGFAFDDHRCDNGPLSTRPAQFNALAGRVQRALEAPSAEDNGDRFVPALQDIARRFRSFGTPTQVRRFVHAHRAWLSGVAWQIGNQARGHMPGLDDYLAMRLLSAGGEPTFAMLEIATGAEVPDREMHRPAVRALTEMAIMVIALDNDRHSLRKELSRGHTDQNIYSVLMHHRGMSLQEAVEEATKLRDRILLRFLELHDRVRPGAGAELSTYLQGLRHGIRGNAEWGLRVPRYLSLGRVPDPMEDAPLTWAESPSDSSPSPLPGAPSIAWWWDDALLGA
Put plainly: Malachite Green assay; GC-FID competition experiment. The format is biochemical. The settings on record: 60 µM each FPP and GGPP, ca. 400 nM enzyme, 30 °C, 3 h; library variants carry Ala89His.

Another data set concerns the target T2, SvS-WT (Streptomyces violens, UniProt P0DPK6).
T2 construct: extant wild-type enzyme, expressed in E. coli BL21(DE3), purified and desalted; dimeric in solution
T2 sequence (P0DPK6 1-359): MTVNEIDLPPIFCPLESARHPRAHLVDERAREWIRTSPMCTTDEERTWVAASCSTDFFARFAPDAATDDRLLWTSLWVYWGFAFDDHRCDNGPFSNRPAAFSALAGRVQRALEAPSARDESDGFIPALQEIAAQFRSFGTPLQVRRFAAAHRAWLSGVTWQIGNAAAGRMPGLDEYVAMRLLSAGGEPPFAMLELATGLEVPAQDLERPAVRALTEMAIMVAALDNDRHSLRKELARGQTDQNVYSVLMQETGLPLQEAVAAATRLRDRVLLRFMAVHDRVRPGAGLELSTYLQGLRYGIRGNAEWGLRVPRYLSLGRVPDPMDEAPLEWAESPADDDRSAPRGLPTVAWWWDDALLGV
Put plainly: in vitro product formation, GC. The format is biochemical. The settings on record: 2 µM enzyme, 3 h.

Data set [2] has as its target T3, SvS-A2 (synthetic construct, UniProt Z9I7L2B0V8, A89H/W156Y).
T3 construct: homodimer; first resolved N-terminal residue Asp09
T3 sequence (Z9I7L2B0V8 1-361 A89H/W156Y): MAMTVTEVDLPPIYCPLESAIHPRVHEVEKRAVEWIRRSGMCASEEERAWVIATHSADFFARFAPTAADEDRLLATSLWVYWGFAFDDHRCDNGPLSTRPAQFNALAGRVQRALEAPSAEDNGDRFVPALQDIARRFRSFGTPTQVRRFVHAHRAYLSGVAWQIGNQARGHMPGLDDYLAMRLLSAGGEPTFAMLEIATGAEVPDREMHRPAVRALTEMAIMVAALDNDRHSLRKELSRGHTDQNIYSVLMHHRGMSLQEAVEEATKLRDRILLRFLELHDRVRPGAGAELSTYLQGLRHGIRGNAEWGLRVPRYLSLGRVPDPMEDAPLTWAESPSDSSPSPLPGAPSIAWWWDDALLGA
Put plainly: Malachite Green assay; GC-FID competition experiment. The format is biochemical. The settings on record: 60 µM each FPP and GGPP, ca. 400 nM enzyme, 30 °C, 3 h; library variants carry Ala89His.

Data set [3] concerns the target spiroviolene synthase (SvS) from Streptomyces violens, extant enzyme (Streptomyces violens). Put plainly: SEC; size exclusion chromatography of the enzyme in solution; conditions in the Supporting Methods (not shown). A general note: In gel filtration, larger molecules generally elute earlier.
Substrate in data set [4]: CC(C)=CCC/C(C)=C/CC/C(C)=C/CC/C(C)=C/COP(=O)(O)OP(=O)(O)O
Put plainly: initial rates of spiroviolene formation, cooperative fit. The format is biochemical, synthetic construct. The following applies: 0.5 µM enzyme, Hill coefficient fit. The source says: initial rates of spiroviolene formation, cooperative fit on SvS-A2 | The KM value for GGPP reported herein is twice as high as previously reported

Substrate in data set [5]: CC(C)=CCC/C(C)=C/CC/C(C)=C/CO[P@@](=O)(O)OP(=O)(O)O
Put plainly: initial rates of hedycaryol formation, Michaelis-Menten fit. The format is biochemical, synthetic construct. The settings on record: 0.5 µM enzyme.

In general, stoichiometry N refers to a count of units in the complex or per binding partner. The Km is the concentration of substrate that gives half-maximal velocity.

For the molecule `CC(C)=CCC/C(C)=C/CC/C(C)=C/COP(=O)(O)OP(=O)(O)O` [FPP], the “Malachite Green assay; GC-FID competition experiment” value at SvS-A2 [1] is reported as “Ala224Ile (group IV) reverses substrate preference of the reconstructed ancestral enzyme”. Besides, on SvS-WT (60 µM FPP, 50 mM Tris-HCl pH 7.4, 30 °C), the “in vitro product formation, GC” value was “the extant enzyme in fact showed higher activity with FPP than GGPP”.
Regarding `CC(C)=CCC/C(C)=C/CC/C(C)=C/CC/C(C)=C/COP(=O)(O)OP(=O)(O)O` [GGPP], the “Malachite Green assay; GC-FID competition experiment” value at SvS-A2 [2] is “A Trp156Tyr exchange (Group III) results in a highly active and diterpene specific SvS-A2 variant”. In addition, the “in vitro product formation, GC” value at SvS-WT (60 µM GGPP, 30 °C) was “both enzymes accepted FPP and GGPP as substrates”.
Turning to “spiroviolene synthase (SvS) from Streptomyces violens, extant enzyme”, in data set [3], the stoichiometry N was 2.

B1: SvS-A2 (synthetic construct) (protein)
chain: MAMTVTEVDLPPIYCPLESAIHPRVHEVEKRAVEWIRRSGMCASEEERAWVIATHSADFFARFAPTAADEDRLLATSLWVYWGFAFDDARCDNGPLSTRPAQFNALAGRVQRALEAPSAEDNGDRFVPALQDIARRFRSFGTPTQVRRFVHAHRAWLSGVAWQIGNQARGHMPGLDDYLAMRLLSAGGEPTFAMLEIATGAEVPDREMHRPAVRALTEMAIMVAALDNDRHSLRKELSRGHTDQNIYSVLMHHRGMSLQEAVEEATKLRDRILLRFLELHDRVRPGAGAELSTYLQGLRHGIRGNAEWGLRVPRYLSLGRVPDPMEDAPLTWAESPSDSSPSPLPGAPSIAWWWDDALLGA
notes: homodimer; first resolved N-terminal residue Asp09
In the case of B1, in data set [4], the Km worked out at 49 ± 6 µM and the kcat was 5.8 ± 0.6 × 10^-3 s^-1. Further, in data set [5], the Michaelis constant (Km) amounted to 28 ± 11 µM and the kcat is 0.3 ± 0.04 × 10^-3 s^-1.

Source of the values: article PMC8023661, “Engineering of Ancestors as a Tool to Elucidate Structure, Mechanism, and Specificity of Extant Terpene Cyclase” (Journal of the American Chemical Society, 2021).
